# Measured values: the FLAb antibody collection (doi:10.7554/elife.23156)
# B1: scFv; the commonest letter at each place (parent)
# chain 1: EVKLDETGGGLVQPGRPMKLSCVASGFTFSDYWMNWVRQSPEKGLEWVAQIRNKPYNYETYYSDSVKGRFTISRDDSKSSVYLQMNNLRVEDMGIYYCTGSYYGMDYWGQGTSVTVS
# chain 2: DVVMTQTPLSLPVSLGDQASISCRSSQSLVHSNGNTYLRWYLQKPGQSPKVLIYKVSNRFSGVPDRFSGSGSGTDFTLKISRVEAEDLGVYFCSQSTHVPWTFGGGTKLEIK
# Experiments:
# fluorescein = variants of: B1; experiment: Kd (Tite-Seq); details: with fluorescein; format: scFv 4-4-20, heavy + light
# [1] = variants of: B1; experiment: yeast surface expression (ratio to wild type); higher = more expressed; details: format: scFv 4-4-20, heavy + light
Kd (fluorescein),Variant,yeast surface expression [1]
≥ 10 µM,chain 1 G100K M105D,0.375
≥ 10 µM,chain 1 G100N Y107K,0.6
≥ 10 µM,chain 1 G100N Y107V,0.691
≥ 10 µM,chain 1 G100N Y102Q,0.746
≥ 10 µM,chain 1 G100N Y102N,0.643
≥ 10 µM,chain 1 G100P Y102W,0.682
≥ 10 µM,chain 1 G100I Y102M,1.08
9.5 µM,chain 1 G100H D106F,0.752
≥ 10 µM,chain 1 G100H D106C,0.222
≥ 10 µM,chain 1 G100R G104V M105S,0.211
≥ 10 µM,chain 1 G100I S101E,0.652
≥ 10 µM,chain 1 G100M G104C,0.544
≥ 10 µM,chain 1 G100L S101K,0.461
≥ 10 µM,chain 1 G100L S101M,0.474
≥ 10 µM,chain 1 G100F W108A,0.671
≥ 10 µM,chain 1 G100M,0.759
≥ 10 µM,chain 1 G100P,0.758
≥ 10 µM,chain 1 G100K,0.395
≥ 10 µM,chain 1 G100N,0.668
≥ 10 µM,chain 1 G100L,0.747
≥ 10 µM,chain 1 G100R,0.624
≥ 10 µM,chain 1 G100Q,0.476
≥ 10 µM,chain 1 G100H,0.432

Kd (fluorescein),Variant,yeast surface expression [1]
≥ 10 µM,chain 1 G100I,0.852
≥ 10 µM,chain 1 G100I S101Y Y107A,0.466
≥ 10 µM,chain 1 G100Q D106I,0.184
≥ 10 µM,chain 1 G100Q D106H,0.182
≥ 10 µM,chain 1 G100Q D106P,0.222
≥ 10 µM,chain 1 G100I Y103E,0.879
≥ 10 µM,chain 1 G100I Y103H,0.94
≥ 10 µM,chain 1 G100I Y103F,0.932
≥ 10 µM,chain 1 G100M G104P D106I,0.361
≥ 10 µM,chain 1 G100L W108Q,0.477
≥ 10 µM,chain 1 G100M G109W,0.185
≥ 10 µM,chain 1 G100M G109M,0.274
≥ 10 µM,chain 1 G100P G109A,0.3
≥ 10 µM,chain 1 G100P G109S,0.485
≥ 10 µM,chain 1 G100R M105Y W108P,0.298
≥ 10 µM,chain 1 G100H S101G,0.649
≥ 10 µM,chain 1 G100H S101E,0.4
≥ 10 µM,chain 1 G100H S101H,0.273
≥ 10 µM,chain 1 G100L Y102W,0.497
≥ 10 µM,chain 1 G100I Y107P W108I,0.471
≥ 10 µM,chain 1 G100F Y102D,0.974
≥ 10 µM,chain 1 G100I G109I,0.25
≥ 10 µM,chain 1 G100I G109A,0.429

Kd (fluorescein),Variant,yeast surface expression [1]
≥ 10 µM,chain 1 G100P M105A,0.56
≥ 10 µM,chain 1 G100N Y102D G109M,0.159
≥ 10 µM,chain 1 G100I S101G D106C,0.777
≥ 10 µM,chain 1 G100L G109V,0.253
≥ 10 µM,chain 1 G100L G109R,0.268
9.5 µM,chain 1 G100L G109S,0.566
≥ 10 µM,chain 1 G100K D106S,0.303
≥ 10 µM,chain 1 G100K D106C,0.0988
≥ 10 µM,chain 1 G100K D106V,0.171
≥ 10 µM,chain 1 G100I Y107D,0.381
≥ 10 µM,chain 1 G100I Y107P,0.276
≥ 10 µM,chain 1 G100I Y107E,0.689
≥ 10 µM,chain 1 G100Q M105S,0.521
≥ 10 µM,chain 1 G100R Y103D W108G,0.483
≥ 10 µM,chain 1 G100R D106V,0.108
≥ 10 µM,chain 1 G100K W108H,0.249
≥ 10 µM,chain 1 G100L G104S,0.51
≥ 10 µM,chain 1 G100Q G109E,0.304
≥ 10 µM,chain 1 G100Q G109C,0.226
≥ 10 µM,chain 1 G100Q G109M,0.223
≥ 10 µM,chain 1 G100P S101T,0.486

# Continued, variant first:
Variant,Kd (fluorescein),yeast surface expression [1]
chain 1 F29W S30V N35H,≥ 10 µM,0.547
chain 1 G100D D106G G109S,≥ 10 µM,0.224
chain 1 G100E G109Y,≥ 10 µM,0.199
chain 1 G100D Y102S,≥ 10 µM,0.289
chain 1 G100A Y103K G109T,3.2 µM,0.753
chain 1 F29W W36Y,≥ 10 µM,0.591
chain 1 G100A W108Y,≤ 0.000316 µM,0.892
chain 1 G100F D106K,≥ 10 µM,0.653
chain 1 G100F,≥ 10 µM,0.93
chain 1 G100A,0.0017 µM,0.964
chain 1 G100E,≥ 10 µM,0.388
chain 1 G100D,≥ 10 µM,0.453
chain 1 G100C,0.00162 µM,0.893
chain 1 G100E Y102S W108I,0.0302 µM,0.245
chain 1 F29Y M34Q V37M,4.37 µM,0.485
chain 1 G100C M105F,≥ 10 µM,0.642
chain 1 F29Y N35W,≥ 10 µM,0.0981
chain 1 F29Y N35H,≥ 10 µM,0.732
chain 1 F29Y N35A,≥ 10 µM,0.842
chain 1 G100F S101M,≥ 10 µM,0.704
chain 1 G100F S101I,≥ 10 µM,0.501
chain 1 G100D Y103C,≥ 10 µM,0.414
chain 1 G100A Y102R G109C,≥ 10 µM,0.266
chain 1 G100C W108L,0.000389 µM,0.653

Variant,Kd (fluorescein),yeast surface expression [1]
chain 1 G100C W108T,0.000846 µM,0.565
chain 1 G100C W108G,≥ 10 µM,0.401
chain 1 G100A Y103L W108G,5.96 µM,0.436
chain 1 F29Y S30A D31M,0.216 µM,0.826
chain 1 G100F G109K,≥ 10 µM,0.265
chain 1 G100F G109V,≥ 10 µM,0.253
chain 1 G100F G109N,≥ 10 µM,0.41
chain 1 G100C S101C,≥ 10 µM,0.624
chain 1 G100C S101A,0.00606 µM,0.711
chain 1 G100C S101W,≥ 10 µM,0.507
chain 1 G100C G104I,≥ 10 µM,0.267
chain 1 F29V Y32S,8.13 µM,0.999
chain 1 G100F S101T G104Y,≥ 10 µM,0.437
chain 1 F29V W36S,≥ 10 µM,0.52
chain 1 F29V W36L,≥ 10 µM,0.332
chain 1 F29W S30I,≥ 10 µM,0.599
chain 1 F29Y S30D,0.0038 µM,0.937
chain 1 G100D G104A,≥ 10 µM,0.116
chain 1 G100E S101V,≥ 10 µM,0.225
chain 1 G100A S101L,≥ 10 µM,0.553
chain 1 G100A S101F,≥ 10 µM,0.652
chain 1 G100F M105D,≥ 10 µM,0.573
chain 1 G100F M105K,≥ 10 µM,1.1
chain 1 F29W W33S,≥ 10 µM,0.431
